Measurements taken from patent US20040186044A1, “Modulation of myelination by interaction with P75 and TRK receptors” (priority 2002, published 2004).

What was measured:
[1] = system: Schwann cell/neuronal cocultures; assay: Western blot of myelin proteins MAG and P0 in Schwann cell/DRG neuronal cocultures; format: cell-based, rat
Procedure: (§1) Dorsal Root Ganglia (DRG) Neuronal Schwann Cell Cocultures. Purified neuronal and Schwann cell cultures were prepared as previously described. Neuronal cultures were established from DRG neurons obtained from Sprague-Dawley rat embryos at 15 days gestation (Simonsen Laboratories, Gilroy, Calif.). DRG neurons were dissociated and plated onto collagen coated coverslips. Nonneuronal cells were eliminated by cycling (three 2-day cycles) with a fluorodeoxyuridine-containing medium (10 μM). NGF-dependent neurons were then maintained for 1 week in a medium consisting of 10% FBS in MEM and 100 ng/ml of NGF.
(§2) Schwann cells were isolated from the sciatic nerve of 4-day-old rat pups. Schwann cells were purified by using cytosine arabinoside and Thy-1.1 antibody mediated lysis of the fibroblasts (the anti-Thy-1.1 antibody was obtained from the American Type Culture Collection). Approximately 100,000 purified Schwann cells were than seeded onto purified neuronal cultures of ˜50,000 cells and allowed to proliferate and ensheath the axons (˜1 week). Myelination was then initiated with the addition of ascorbic acid (50 μg/ml), which was replenished with feeding every 2 to 3 days.
(§3) Western Blot Analysis. Samples from Schwann cell/neuronal co-cultures and sciatic nerves were prepared for Western blot analysis by homogenization in radioimmunoprecipitation assay (RIPA) buffer [PBS with 1% Nonidet P-40/0.5% deoxycholate/0.1% SDS/1 mM PMSF/Complete protease inhibitor tablets (Roche Molecular Biochemicals)] followed by high-speed centrifugation. Protein determination was made by using the Bicinchoninic Acid Kit (Sigma). Equivalent amounts of total protein extract from each sample were mixed with sample buffer, boiled, and loaded onto SDS polyacrylamide gels. Electrophoretic separation of the extracts was typically performed on 10-15% (depending on the molecular weight of the protein of interest) discontinuous acrylamide gels under denaturing conditions. The proteins were then transferred to pure nitrocellulose membranes (PROTRAN BA85, Schleicher and Schuell, 0.45 μm) and probed with specific antibodies. The mouse monoclonal anti-myelin-associated glycoprotein (MAG; Chemicon) was used at a concentration of 2.5 μg/ml (under nonreducing conditions); the mouse monoclonal anti-P0 antibody was used at a dilution of 1:5,000. All primary antibodies were incubated overnight at 4° C. Secondary HRP-conjugated anti-mouse IgG and anti-rabbit IgG antibodies were used at a dilution of 1:10,000 (Jackson ImmunoResearch). The blots were developed by chemiluminescence (Renaissance, DuPont_NEN) as described by the manufacturer. All of the blots were imaged and quantitated in the linear range for the corresponding antibodies. Protein concentrations of the samples were serial diluted until linear intensities were achieved. In many instances, the blots were stripped and reprobed with different antibodies.

[2] = system: Schwann cell/neuronal cocultures; assay: P0 immunocytochemistry of mature myelin internodes in Schwann cell/neuronal cocultures; format: cell-based; settings: for Schwann cell proliferation and morphology of ensheathed Schwann cells / cell death (neurofilament and nuclear staining): 100 ng/ml; for formation of mature myelin internodes (P0 immunostaining): BDNF, TrkB-Fc, TrkC-Fc 1 μg/ml, added at day of induction, 6 days after induction
Procedure: as §1, §2
Immunocytochemistry. Cocultures were fixed in 4% paraformaldehyde before dehydration through a graded ethanol series (50, 70, 90, and 100%). Samples were then permeabilized and blocked by incubation with 20% normal goat serum or 10% FCS. Primary antibodies included the mouse monoclonal anti-P0 antibody used at a dilution of 1:500 and the mouse monoclonal anti-MAG at a concentration of 2.5 μg/ml. The Texas red-conjugated anti-mouse IgG (Jackson ImmunoResearch) was used as a secondary antibody at a dilution of 1:1,000. Cellular nuclei were examined by using the Hoechst dye. Samples were mounted and fluorescence microscopy was accomplished by using a Nikon Microphot FXA.

[3] = system: wild-type SC/DRG cocultures; assay: Western blot of P0 and MAG in wild-type mouse SC/DRG cocultures; format: cell-based; settings: six days after initiation of myelination
Procedure: (§4) (A-B) Newborn wild-type and p75^NTR −/− mice were injected with BDNF (wild-type, n=10; p75^NTR −/−, n=25) and NT3 (wild-type, n=13; p75^NTR −/−, n=14) or the scavengers TrkB-Fc (wild-type, n=13; p75^NTR −/−, n=20) and TrkC-Fc (wild-type, n=14; p75^NTR −/−, n=20) and the levels of (A) P0 and (B) MAG were analyzed by Western-blot 4 days later. Asterisks: p<0.01. (C-D) Wild-type and p75^NTR −/− SC/DRG cocultures were established from E13 mouse embryos obtained through crossing heterozygous (p75^NTR +/−) mice. Levels of (C) P0 and (D) MAG were determined by Western-blot six days after initiation of myelination in the presence of the different factors. Asterisks: p<0.01.

[4] = system: sciatic nerve of p75NTR -/- mice; assay: Western blot of P0 and MAG in sciatic nerve of injected newborn p75NTR -/- mice; format: in vivo, mouse; settings: Western-blot 4 days later
Procedure: as §4

[5] = system: p75NTR -/- SC/DRG cocultures; assay: Western blot of P0 and MAG in p75NTR -/- mouse SC/DRG cocultures; format: cell-based; settings: six days after initiation of myelination
Procedure: as §4

sciatic nerve [6] = assay: Western blot of MAG and P0 in developing sciatic nerve after s.c. injection of newborn mice; format: in vivo, mouse; settings: for P0 and MAG protein expression, wild-type mice: newborn wild-type mice, Western-blot 4 days later
Procedure: as §3
(§5) Injections in Mouse Sciatic Nerve. BDNF, NT3, TrkB-Fc, and TrkC-Fc (3 μg each; Regeneron Pharmaceuticals) were injected s.c. starting from the caudal portion of the greater trochanter region and running parallel along the sciatic nerve (total volume of 5 μl). T he contralateral leg served as a control for each factor with the injection of saline. Injections were performed on 1-day-old mouse pups (C57BU6, Simonsen Laboratories) and the sciatic nerves were extracted and processed 48 h later. A second set of mice were reinjected with the factors and then examined after an additional 48 h (4 days of total treatment). Nerves used for electron microscopy were trimmed and incisions were made at the flexure of the greater trochanter. In total, 11 animals were analyzed after injection with BDNF, 12 with TrkB-Fc, 11 with NT3, and 7 with TrkC-Fc.

SC/DRG cocultures = assay: TUNEL analysis of neuronal or glial survival in SC/DRG cocultures; format: cell-based, rat; settings: added at the start of myelination
sciatic nerve [7] = assay: Electron microscopy of myelin ultrastructure in developing sciatic nerve of injected newborn mice; format: in vivo, mouse
Procedure: as §5
Electron Microscopy. Electron microscopy was performed by the Electron Microscopy Facility in the Department of Microbiology and Immunology (Stanford University, CA). Processing of the sciatic nerve was accomplished by fixation in 2% glutaraldehyde and 4% paraformaldehyde solution in PBS, followed by post-fixation in 1% OSO4. […] Finally, samples were infiltrated and embedded in pure epoxy.

[8] = 100 ng/ml added at day of induction, analysed after 6 days of induction
[9] = 3 μg at P1, reinjected 2 days later, nerves at P5, vs contralateral saline
[10] = 3 μg at P1, reinjected, nerves at P5

Molecule: NT3: neurotrophin-3, gift from Regeneron Pharmaceuticals
- diminished expression of MAG [1, 8]: ~2 fold
- diminished expression of P0 [1, 8]: ~3 fold
- Schwann cell proliferation and morphology of ensheathed Schwann cells [2]: Neither BDNF nor NT3 caused any changes
- cell death (neurofilament and nuclear staining) [2]: no sign of increased cell death
- formation of mature myelin internodes (P0 immunostaining) ([2]; NT3 100 ng/ml): inhibited the appearance of myelin internodes
- thickness and length of detected internodes vs control cultures ([2]; NT3 100 ng/ml, TrkB-Fc 1 μg/ml): significantly thinner and shorter in length
- myelin protein expression (P0, MAG), wild-type cocultures [3]: inhibited
- P0 and MAG protein expression, p75NTR -/- mice [4]: inhibited
- myelin protein expression (P0, MAG), p75NTR -/- cocultures [5]: inhibited
- inhibition of MAG and P0 expression in the sciatic nerves (sciatic nerve [6]; 3 μg s.c., mice treated for 2 days, vs contralateral leg): ~25%
- P0 and MAG protein expression, wild-type mice (sciatic nerve [6]): inhibited

Molecule: COC(=O)[C@@]1(O)C[C@H]2O[C@]1(C)n1c3ccccc3c3c4c(c5c6ccccc6n2c5c31)C(=O)NC4 [K252a, K-252a, reference compound]
- accumulation of myelin proteins MAG and P0 ([1]; rat SC/DRG cocultures treated for 6 days from induction): increase in myelin protein accumulation
- formation of mature myelin internodes (P0 immunocytochemistry) ([2]; rat SC/DRG cocultures, Example 2): increase
- neuronal or glial survival (SC/DRG cocultures): does not affect neuronal or glial survival

B1: BDNF: neurotrophin brain-derived neurotrophic factor, gift from Regeneron Pharmaceuticals (protein, UniProt P23560 19-247, looked up)
Neurotrophic factor BDNF …: APMKEANIRGQGGLAYPGVRTHGTLESVNGPKAGSRGLTSLADTFEHVIEELLDEDQKVRPNEENNKDADLYTSRVMLSSQVPLEPPLLFLLEEYKNYLDAANMSMRVRRHSDPARRGELSVCDSISEWVTAADKKTAVDMSGGTVTVLEKVPVSKGQLKQYFYETKCNPMGYTKEGCRGIDKRHWNSQCRTTQSYVRALTMDSKKRIGWRFIRIDTSCVCTLTIKRGR
- enhancement of MAG expression over control cultures [1, 8]: ~2 fold
- enhancement of P0 expression over control cultures [1, 8]: ~1.5 fold
- modulation of myelination (P0 and MAG) in the presence of K252a ([1]; in combination with K252a, 6 days): still able to modulate myelination
- Schwann cell proliferation and morphology of ensheathed Schwann cells [2]: Neither BDNF nor NT3 caused any changes
- cell death (neurofilament and nuclear staining) [2]: no sign of increased cell death
- formation of mature myelin internodes (P0 immunostaining) ([2]; NT3 100 ng/ml): produced an enhancement in myelin formation
- myelin protein expression (P0, MAG), wild-type cocultures [3]: enhanced
- decrease in ensheathed axons (sciatic nerve [7]; [9]): 2 fold
- number of myelinated axons (sciatic nerve [7]; [9]): significant correlative increase in the number of myelinated axons
- more wraps of myelin on average than control nerves (sciatic nerve [7]; [10]): 25%
- percentage of myelinated axons with more than 25 wraps of myelin (sciatic nerve [7]; [10]): more than 30%
- thickness of the myelin sheath (number of lamellae distribution) vs contralateral control nerve (sciatic nerve [7]; newborn mice, sciatic nerve): significantly thicker
- total number of axons vs contralateral control nerves (sciatic nerve [7]; ultrastructural studies): did not reveal any differences in the total number of axons
- P0 and MAG protein expression, p75NTR -/- mice [4]: neither BDNF nor TrkB-Fc were able to modulate myelin protein expression
- myelin protein expression (P0, MAG), p75NTR -/- cocultures [5]: neither BDNF nor TrkB-Fc had any effect
- enhancement of MAG and P0 expression in the sciatic nerves (sciatic nerve [6]; 3 μg s.c., 1-day-old mouse pups, vs saline-injected contralateral leg): more than 50%
- P0 and MAG protein expression, wild-type mice (sciatic nerve [6]): enhanced P0 and MAG protein expression
- P0 and MAG expression in sciatic nerve (sciatic nerve [6]; s.c. injection of newborn mice, nerves isolated four days later (Example 2)): enhanced P0 and MAG expression
